Experimental data reported in the supplement of paper PMC10567573.

B1: ZNF449 (parent)
chain: FQEYDTDCEVFRQRFRQFQYREAA
B2: RHOBTB3 (parent)
chain: DSCCPAGIFQAMCLLICAEMYQVS

Variants of: B1
Test: protein stability index of a GFP-peptide fusion (GPS, HEK-293T) (PSI 1-6); higher = more stable
Settings: c terminus: a fixed tail appended
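Note: lentivirally expressed fusions sorted by FACS into six bins by GFP to DsRed ratio, PSI derived from sequencing read proportions per bin multiplied by bin number.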

For FLEYDTDCEVFRQRFRQFQYREAA [Q2L], which protein stability index is on record?
The protein stability index was 2.33.

Which protein stability index does the source give for FAEYDTDCEVFRQRFRQFQYREAA [Q2A] here?
The protein stability index was 2.9.

For FHEYDTDCEVFRQRFRQFQYREAA [Q2H], which protein stability index is on record?
The protein stability index was 1.78.

With FGEYDTDCEVFRQRFRQFQYREAA [Q2G] as the variant, how does the protein stability index read?
Its protein stability index is 2.59.

Which protein stability index does the source give for FKEYDTDCEVFRQRFRQFQYREAA [Q2K] here?
Its protein stability index is 2.96.

Which protein stability index does the source give for FCEYDTDCEVFRQRFRQFQYREAA [Q2C] here?
Its protein stability index is 2.26.

For FREYDTDCEVFRQRFRQFQYREAA [Q2R], which protein stability index is on record?
The protein stability index was 2.09.

For FDEYDTDCEVFRQRFRQFQYREAA [Q2D], which protein stability index is on record?
The protein stability index was 3.19.

Which protein stability index does the source give for FEEYDTDCEVFRQRFRQFQYREAA [Q2E] here?
The protein stability index was 2.73.

With FPEYDTDCEVFRQRFRQFQYREAA [Q2P] as the variant, how does the protein stability index read?
The protein stability index was 2.72.

For FYEYDTDCEVFRQRFRQFQYREAA [Q2Y], which protein stability index is on record?
Its protein stability index is 2.5.

With FIEYDTDCEVFRQRFRQFQYREAA [Q2I] as the variant, how does the protein stability index read?
Its protein stability index is 1.97.

Which protein stability index does the source give for FMEYDTDCEVFRQRFRQFQYREAA [Q2M] here?
Its protein stability index is 2.61.

With FFEYDTDCEVFRQRFRQFQYREAA [Q2F] as the variant, how does the protein stability index read?
Its protein stability index is 2.48.

With FTEYDTDCEVFRQRFRQFQYREAA [Q2T] as the variant, how does the protein stability index read?
Its protein stability index is 2.69.

For FWEYDTDCEVFRQRFRQFQYREAA [Q2W], which protein stability index is on record?
The protein stability index was 2.67.

Which protein stability index does the source give for FNEYDTDCEVFRQRFRQFQYREAA [Q2N] here?
The protein stability index was 2.93.

Which protein stability index does the source give for FSEYDTDCEVFRQRFRQFQYREAA [Q2S] here?
The protein stability index was 3.32.

For FVEYDTDCEVFRQRFRQFQYREAA [Q2V], which protein stability index is on record?
The protein stability index was 1.68.

With AQEYDTDCEVFRQRFRQFQYREAA [F1A] as the variant, how does the protein stability index read?
The protein stability index was 2.85.

With MQEYDTDCEVFRQRFRQFQYREAA [F1M] as the variant, how does the protein stability index read?
The protein stability index was 3.03.

For YQEYDTDCEVFRQRFRQFQYREAA [F1Y], which protein stability index is on record?
The protein stability index was 2.25.

Which protein stability index does the source give for HQEYDTDCEVFRQRFRQFQYREAA [F1H] here?
Its protein stability index is 3.24.

With RQEYDTDCEVFRQRFRQFQYREAA [F1R] as the variant, how does the protein stability index read?
Its protein stability index is 2.43.

With SQEYDTDCEVFRQRFRQFQYREAA [F1S] as the variant, how does the protein stability index read?
Its protein stability index is 2.85.

Which protein stability index does the source give for LQEYDTDCEVFRQRFRQFQYREAA [F1L] here?
Its protein stability index is 3.19.

For WQEYDTDCEVFRQRFRQFQYREAA [F1W], which protein stability index is on record?
The protein stability index was 2.82.

For CQEYDTDCEVFRQRFRQFQYREAA [F1C], which protein stability index is on record?
Its protein stability index is 2.6.

For DQEYDTDCEVFRQRFRQFQYREAA [F1D], which protein stability index is on record?
The protein stability index was 3.01.

For GQEYDTDCEVFRQRFRQFQYREAA [F1G], which protein stability index is on record?
Its protein stability index is 3.31.

For IQEYDTDCEVFRQRFRQFQYREAA [F1I], which protein stability index is on record?
Its protein stability index is 2.81.

With PQEYDTDCEVFRQRFRQFQYREAA [F1P] as the variant, how does the protein stability index read?
The protein stability index was 3.42.

For EQEYDTDCEVFRQRFRQFQYREAA [F1E], which protein stability index is on record?
Its protein stability index is 3.25.

For QQEYDTDCEVFRQRFRQFQYREAA [F1Q], which protein stability index is on record?
The protein stability index was 2.79.

With NQEYDTDCEVFRQRFRQFQYREAA [F1N] as the variant, how does the protein stability index read?
The protein stability index was 3.23.

For TQEYDTDCEVFRQRFRQFQYREAA [F1T], which protein stability index is on record?
The protein stability index was 3.22.

Which protein stability index does the source give for FQGYDTDCEVFRQRFRQFQYREAA [E3G] here?
The protein stability index was 1.41.

With FQAYDTDCEVFRQRFRQFQYREAA [E3A] as the variant, how does the protein stability index read?
The protein stability index was 2.08.

For FQFYDTDCEVFRQRFRQFQYREAA [E3F], which protein stability index is on record?
The protein stability index was 2.35.

Which protein stability index does the source give for FQDYDTDCEVFRQRFRQFQYREAA [E3D] here?
The protein stability index was 2.24.

For FQCYDTDCEVFRQRFRQFQYREAA [E3C], which protein stability index is on record?
The protein stability index was 1.76.

Variants of: B2
Test: as above
Settings: c terminus: a fixed tail appended

Which protein stability index does the source give for DSCCPAGIFQAMCLLICHEMYQVS [A18H] here?
Its protein stability index is 3.29.

Which protein stability index does the source give for DSCCPAGIFQAMCLLICLEMYQVS [A18L] here?
The protein stability index was 2.35.

Which protein stability index does the source give for DSCCPAGIFQAMCLLICCEMYQVS [A18C] here?
Its protein stability index is 2.87.

With DSCCPAGIFQAMCLLICAETYQVS [M20T] as the variant, how does the protein stability index read?
The protein stability index was 2.03.

Which protein stability index does the source give for DSCCPAGIFQAMCLLICAEVYQVS [M20V] here?
The protein stability index was 2.24.

With DSCCPAGIFQAMCLLICAEMYVVS [Q22V] as the variant, how does the protein stability index read?
Its protein stability index is 3.65.

For DSCCPAGIFQAMCLLICAEMYTVS [Q22T], which protein stability index is on record?
Its protein stability index is 3.27.

For DSCCPAGIFQAMCLLICAEMYAVS [Q22A], which protein stability index is on record?
The protein stability index was 3.15.

For DSCCPAGIFQAMCLLICAEMYPVS [Q22P], which protein stability index is on record?
The protein stability index was 2.12.

For DSCCPAGIFQAMCLLICAEMYDVS [Q22D], which protein stability index is on record?
Its protein stability index is 2.17.

Which protein stability index does the source give for DSCCPAGIFQAMCLLICAEMYRVS [Q22R] here?
Its protein stability index is 3.1.

With DSCCPAGIFQAMCLLICAEMYSVS [Q22S] as the variant, how does the protein stability index read?
Its protein stability index is 2.99.

With DSCCPAGIFQAMCLLICAEMYWVS [Q22W] as the variant, how does the protein stability index read?
Its protein stability index is 2.54.

For DSCCPAGIFQAMCLLICAEMYGVS [Q22G], which protein stability index is on record?
The protein stability index was 3.65.

Which protein stability index does the source give for DSCCPAGIFQAMCLLICAEMYIVS [Q22I] here?
Its protein stability index is 2.2.

Which protein stability index does the source give for DSCCPAGIFQAMCLLICAEMYYVS [Q22Y] here?
Its protein stability index is 2.33.

With DKCCPAGIFQAMCLLICAEMYQVS [S2K] as the variant, how does the protein stability index read?
The protein stability index was 4.66.

With DICCPAGIFQAMCLLICAEMYQVS [S2I] as the variant, how does the protein stability index read?
Its protein stability index is 3.54.

For DTCCPAGIFQAMCLLICAEMYQVS [S2T], which protein stability index is on record?
Its protein stability index is 3.94.

With DWCCPAGIFQAMCLLICAEMYQVS [S2W] as the variant, how does the protein stability index read?
Its protein stability index is 3.17.

For DLCCPAGIFQAMCLLICAEMYQVS [S2L], which protein stability index is on record?
The protein stability index was 2.17.

Which protein stability index does the source give for DNCCPAGIFQAMCLLICAEMYQVS [S2N] here?
The protein stability index was 3.1.

Which protein stability index does the source give for DPCCPAGIFQAMCLLICAEMYQVS [S2P] here?
The protein stability index was 2.93.

Which protein stability index does the source give for DSCCPAGIFQAMCLFICAEMYQVS [L15F] here?
The protein stability index was 2.97.

With DSCCPAGIFQAMCLSICAEMYQVS [L15S] as the variant, how does the protein stability index read?
Its protein stability index is 3.51.

For DSCCPAGIFQAMCLIICAEMYQVS [L15I], which protein stability index is on record?
The protein stability index was 3.1.

Which protein stability index does the source give for DSCCPAGIFQAMCLHICAEMYQVS [L15H] here?
Its protein stability index is 1.08.

With DSCCPAGIFQAMCLMICAEMYQVS [L15M] as the variant, how does the protein stability index read?
The protein stability index was 2.19.

With DSCCPAGIFQAMCLWICAEMYQVS [L15W] as the variant, how does the protein stability index read?
Its protein stability index is 1.09.

With DSCCPAGIFQAMCLNICAEMYQVS [L15N] as the variant, how does the protein stability index read?
Its protein stability index is 1.98.

With DSCCPAGIFQAMCLYICAEMYQVS [L15Y] as the variant, how does the protein stability index read?
Its protein stability index is 1.98.

With DSCCPAGIFQAMCLLGCAEMYQVS [I16G] as the variant, how does the protein stability index read?
Its protein stability index is 3.97.

Which protein stability index does the source give for DSCCPAGIFQAMCLLLCAEMYQVS [I16L] here?
The protein stability index was 2.92.

With DSCCPAGIFQAMCLLNCAEMYQVS [I16N] as the variant, how does the protein stability index read?
The protein stability index was 2.67.

With DSCCPAGIFQAMCLLDCAEMYQVS [I16D] as the variant, how does the protein stability index read?
Its protein stability index is 1.34.

For DSCCPAGIFQAMCLLMCAEMYQVS [I16M], which protein stability index is on record?
The protein stability index was 2.51.

For DSCCPAGIFQAMCLLHCAEMYQVS [I16H], which protein stability index is on record?
The protein stability index was 2.82.

For DSCCPAGIFQAMCLLECAEMYQVS [I16E], which protein stability index is on record?
Its protein stability index is 1.7.

Which protein stability index does the source give for DSCCPAGIFQAMCLLIHAEMYQVS [C17H] here?
The protein stability index was 4.02.

Which protein stability index does the source give for DSCCPAGIFQAMCLLINAEMYQVS [C17N] here?
The protein stability index was 3.58.

For DSCCPAGIFQAMCLLIMAEMYQVS [C17M], which protein stability index is on record?
The protein stability index was 5.55.

With DSCCPAGIFQAMCLLITAEMYQVS [C17T] as the variant, how does the protein stability index read?
Its protein stability index is 2.97.

With DSCCPAGIFQAMCLLIDAEMYQVS [C17D] as the variant, how does the protein stability index read?
Its protein stability index is 1.91.

For DSCCPAGIFQAMCLLIRAEMYQVS [C17R], which protein stability index is on record?
Its protein stability index is 4.51.

For DSCCPAGIFPAMCLLICAEMYQVS [Q10P], which protein stability index is on record?
The protein stability index was 2.72.

Which protein stability index does the source give for DSCCPAGIFKAMCLLICAEMYQVS [Q10K] here?
Its protein stability index is 3.05.

Which protein stability index does the source give for DSCCPAGIFDAMCLLICAEMYQVS [Q10D] here?
The protein stability index was 2.75.

Which protein stability index does the source give for DSCCPAGIFNAMCLLICAEMYQVS [Q10N] here?
Its protein stability index is 2.37.

For DSCCPAGVFQAMCLLICAEMYQVS [I8V], which protein stability index is on record?
The protein stability index was 3.73.

For DSCCPAGPFQAMCLLICAEMYQVS [I8P], which protein stability index is on record?
The protein stability index was 1.68.

For DSCCPAGEFQAMCLLICAEMYQVS [I8E], which protein stability index is on record?
The protein stability index was 1.48.

Which protein stability index does the source give for DSCCPAGRFQAMCLLICAEMYQVS [I8R] here?
Its protein stability index is 2.55.

With DSCCPAGMFQAMCLLICAEMYQVS [I8M] as the variant, how does the protein stability index read?
The protein stability index was 1.95.
